Measurements from the supplement of paper PMC9112550, “Optimization of the antimicrobial peptide Bac7 by deep mutational scanning” (BMC Biology, 2022).

Tested on: Escherichia coli TOP10
Test: shrunken log2 fold change of peptide-encoding DNA abundance (4.5 h post-induction vs induction); higher = less antimicrobial activity (less host growth inhibition)
Settings: time post-induction: 4.5 h; library: site-saturation at positions 5, 18, 19, 20
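Further: peptides expressed intracellularly from a pBAD plasmid library in pooled LB shake-flask culture, induced with 0.3% L-arabinose, DNA abundance read by NGS, three biological replicates, DESeq2 with apeglm shrinkage.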

Row | Sequence | shrunken log2 fold change
1 | RRIRDRPPRLPRPRPRPEMNPRP | 0.128
2 | RRIRQRPPRLPRPRPRPYVDPRP | -0.431
3 | RRIRKRPPRLPRPRPRPWRHPRP | 0.094
4 | RRIRCRPPRLPRPRPRPDAIPRP | -0.0147
5 | RRIRNRPPRLPRPRPRPWFIPRP | -0.306
6 | RRIRSRPPRLPRPRPRPFGPPRP | 0.132
7 | RRIRRRPPRLPRPRPRPEQAPRP | -0.0266
8 | RRIRCRPPRLPRPRPRPTVWPRP | 0.553
9 | RRIRCRPPRLPRPRPRPCETPRP | 0.0192
10 | RRIRMRPPRLPRPRPRPKTSPRP | 0.641
11 | RRIRKRPPRLPRPRPRPHTKPRP | -0.0306
12 | RRIRVRPPRLPRPRPRPQPGPRP | 0.255
13 | RRIRDRPPRLPRPRPRPFMGPRP | -0.27
14 | RRIRQRPPRLPRPRPRPLEYPRP | -0.082
15 | RRIRSRPPRLPRPRPRPFATPRP | 0.461
16 | RRIRIRPPRLPRPRPRPMVFPRP | -0.263
17 | RRIRLRPPRLPRPRPRPQSNPRP | -0.0786
18 | RRIRVRPPRLPRPRPRPMCTPRP | -0.0103
19 | RRIRIRPPRLPRPRPRPIMAPRP | -0.286
20 | RRIRCRPPRLPRPRPRPIGPPRP | 0.112
21 | RRIRFRPPRLPRPRPRPWYEPRP | -0.0991
22 | RRIRARPPRLPRPRPRPHFTPRP | 0.345
23 | RRIRERPPRLPRPRPRPFCIPRP | -0.346

Row | Sequence | shrunken log2 fold change
24 | RRIRHRPPRLPRPRPRPAVGPRP | 0.11
25 | RRIRCRPPRLPRPRPRPDIVPRP | -0.0875
26 | RRIRIRPPRLPRPRPRPEGGPRP | 0.155
27 | RRIRLRPPRLPRPRPRPVFRPRP | 0.0694
28 | RRIRKRPPRLPRPRPRPQPWPRP | 0.805
29 | RRIRKRPPRLPRPRPRPHCPPRP | -0.00424
30 | RRIRARPPRLPRPRPRPIDFPRP | 0.125
31 | RRIRKRPPRLPRPRPRPFSCPRP | -0.122
32 | RRIRGRPPRLPRPRPRPMPQPRP | 0.255
33 | RRIRDRPPRLPRPRPRPLWEPRP | 0.0751
34 | RRIRIRPPRLPRPRPRPRLDPRP | 0.1
35 | RRIRCRPPRLPRPRPRPARAPRP | 0.471
36 | RRIRYRPPRLPRPRPRPADQPRP | -0.0819
37 | RRIRPRPPRLPRPRPRPVSYPRP | -0.245
38 | RRIRPRPPRLPRPRPRPAQRPRP | 0.104
39 | RRIRVRPPRLPRPRPRPVASPRP | 0.187
40 | RRIRGRPPRLPRPRPRPVQEPRP | 0.873
41 | RRIRVRPPRLPRPRPRPCPTPRP | -0.17
42 | RRIRIRPPRLPRPRPRPIEWPRP | -0.123
43 | RRIRGRPPRLPRPRPRPLNFPRP | -0.0482
44 | RRIRARPPRLPRPRPRPTTYPRP | -0.0877
45 | RRIRPRPPRLPRPRPRPQKHPRP | 0.865
46 | RRIRNRPPRLPRPRPRPLWAPRP | -0.0559

Row | Sequence | shrunken log2 fold change
47 | RRIRYRPPRLPRPRPRPFRKPRP | -0.00664
48 | RRIRTRPPRLPRPRPRPWSVPRP | -0.199
49 | RRIRVRPPRLPRPRPRPWGVPRP | -0.15
50 | RRIRMRPPRLPRPRPRPAWWPRP | 0.879
51 | RRIRARPPRLPRPRPRPATRPRP | 0.487
52 | RRIRNRPPRLPRPRPRPKSFPRP | -0.00133
53 | RRIRSRPPRLPRPRPRPTVKPRP | -0.188
54 | RRIRYRPPRLPRPRPRPLCLPRP | -0.341
55 | RRIRPRPPRLPRPRPRPKMCPRP | 0.0196
56 | RRIRMRPPRLPRPRPRPLAIPRP | 0.173
57 | RRIRFRPPRLPRPRPRPGTGPRP | -0.124
58 | RRIRQRPPRLPRPRPRPDVGPRP | -0.0428
59 | RRIRMRPPRLPRPRPRPKVTPRP | 0.209
60 | RRIRDRPPRLPRPRPRPCRTPRP | -0.173
61 | RRIRNRPPRLPRPRPRPLENPRP | -0.0075
62 | RRIRKRPPRLPRPRPRPLANPRP | 0.029
63 | RRIRRRPPRLPRPRPRPMIAPRP | 0.121
64 | RRIRRRPPRLPRPRPRPVKRPRP | 0.457
65 | RRIRFRPPRLPRPRPRPSDPPRP | -0.106
66 | RRIRVRPPRLPRPRPRPSWIPRP | -0.476
67 | RRIRHRPPRLPRPRPRPHVIPRP | -0.302
68 | RRIRARPPRLPRPRPRPATGPRP | 0.318
69 | RRIRERPPRLPRPRPRPRFVPRP | -0.373

Row | Sequence | shrunken log2 fold change
70 | RRIRNRPPRLPRPRPRPNPYPRP | -0.151
71 | RRIRVRPPRLPRPRPRPKDPPRP | -0.106
72 | RRIRMRPPRLPRPRPRPFNIPRP | -0.3
73 | RRIRIRPPRLPRPRPRPIKEPRP | -0.021
74 | RRIRKRPPRLPRPRPRPTHYPRP | -0.134
75 | RRIRWRPPRLPRPRPRPYCQPRP | -0.694
76 | RRIRLRPPRLPRPRPRPDKWPRP | 0.0575
77 | RRIRFRPPRLPRPRPRPKVGPRP | -0.01
78 | RRIRFRPPRLPRPRPRPGHWPRP | 0.0649
79 | RRIRSRPPRLPRPRPRPIIAPRP | -0.0683
80 | RRIRRRPPRLPRPRPRPNEEPRP | 0.0468
81 | RRIRLRPPRLPRPRPRPDWTPRP | 0.000807
82 | RRIRMRPPRLPRPRPRPTGQPRP | 0.636
83 | RRIRCRPPRLPRPRPRPTQHPRP | 0.349
84 | RRIRVRPPRLPRPRPRPYNSPRP | -0.0974
85 | RRIRKRPPRLPRPRPRPIKFPRP | -0.131
86 | RRIRTRPPRLPRPRPRPRMQPRP | 0.0874
87 | RRIRYRPPRLPRPRPRPWLIPRP | -0.204
88 | RRIRGRPPRLPRPRPRPEKQPRP | 0.034
89 | RRIRARPPRLPRPRPRPQEGPRP | -0.0912
90 | RRIRMRPPRLPRPRPRPADFPRP | 0.0087
91 | RRIRHRPPRLPRPRPRPRAPPRP | 0.741
